± gives the uncertainty stated by the source.
Experiment: self-splicing fitness, log relative to wild type (ln ratio); higher = more splicing; Tetrahymena group I intron in knt gene, E. coli kanamycin selection, DiMSum; sequences stand for … in CUCUCU…GGAGGGAAAAGUUAUCAGGCAUGCACCUGGUAGCUAGUCUUUAAACCAAUAGAUUGCAUCGGUUUAAAAGGCAAGACCGUCAAAUUGCGGGAAAGGGGUCAACAGCCGUUCAGUACCAAGUCUCAGGGGAAACUUUGAGAUGGCCUUGCAAAGGGUAUGGUAAUAAGCUGACGGACAUGGUCCUAACCACGCAGCCAAGUCCUAAGUCAACAGAUCUUCUGUUGAUAUGGAUGCAGUUCACAGACUAAAUGUCGGUCGGGGAAGAUGUAUUCUUCUCAUAAGAUAUAGUCGGACCUCUCCUUAAUGGGAGCUAGCGGAUGAAGUGAUGCAACACUGGAGCCGCUGGGAACUAAUUUGUAUGCGAAAGUAUAUUGAUUAGUUUUGGAGUACUCGUGGUCG
Method in brief: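 Six replicate transformations of E. coli BL21(DE3) with a pET-22b(+) library were grown overnight at 37°C or 30°C. The library randomised all eight P1ex-region intron nucleotides, the intron lying in the knt kanamycin-resistance gene, and plates were LB agar with or without 25 μg/mL kanamycin plus 100 μg/mL carbenicillin, 50 μM IPTG and 0.2% rhamnose. Pooled colonies were amplicon-sequenced on an Illumina HiSeq 2500, and fitness is the DiMSum error-weighted combination of wild-type-normalised replicate fold changes, kanamycin versus none.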

Row | Sequence | self-splicing fitness (ln) (30 °C) | self-splicing fitness (ln) (37 °C)
1 | UGGUAGCAAUAUUACGAAUU | -1.86 ± 0.36 | -2.22 ± 0.32
2 | AAGAAGCAAUAUUACGUGCG | -0.93 ± 0.079 | -0.0711 ± 0.1
3 | GCUGAGCAAUAUUACGUGGU | -3.63 ± 0.32 | -2.22 ± 0.4
4 | ACAAAGCAAUAUUACGCGCA | -0.72 ± 0.067 | -0.569 ± 0.078
5 | GCGGAGCAAUAUUACGUUAC | -1.51 ± 0.22 | -2.36 ± 0.39
6 | CGAGAGCAAUAUUACGACCA | -2.78 ± 0.37 | –
7 | CUGUAGCAAUAUUACGUACG | -1.43 ± 0.21 | -1.05 ± 0.19
8 | ACGGAGCAAUAUUACGCAUC | -2.6 ± 0.17 | -2.03 ± 0.21
9 | ACAUAGCAAUAUUACGGCGC | -1.1 ± 0.083 | -0.521 ± 0.11
10 | CUGUAGCAAUAUUACGUUAA | -3.31 ± 0.33 | -1.49 ± 0.23
11 | CGUGAGCAAUAUUACGGAAA | -2.27 ± 0.3 | -1.14 ± 0.27
12 | CUUAAGCAAUAUUACGCAUA | -3.2 ± 0.32 | –
13 | UACGAGCAAUAUUACGAUCG | -0.594 ± 0.1 | -0.663 ± 0.13
14 | CAAUAGCAAUAUUACGAACU | -3.14 ± 0.27 | -1.83 ± 0.18
15 | CAAAAGCAAUAUUACGCGUU | -3.91 ± 0.17 | -2.74 ± 0.13
16 | GUGCAGCAAUAUUACGUGUA | -2.77 ± 0.16 | -1.31 ± 0.11
17 | GGAAAGCAAUAUUACGUUUA | -1.89 ± 0.11 | -1.16 ± 0.11
18 | UCUUAGCAAUAUUACGUCUA | -3.59 ± 0.31 | -2.19 ± 0.2
19 | UACAAGCAAUAUUACGGCCU | -1.09 ± 0.094 | -0.547 ± 0.13
20 | GGUUAGCAAUAUUACGGGAC | -3 ± 0.3 | -1.44 ± 0.21

Row | Sequence | self-splicing fitness (ln) (30 °C) | self-splicing fitness (ln) (37 °C)
21 | GUGCAGCAAUAUUACGUUCU | -1.1 ± 0.1 | 0.673 ± 0.097
22 | GGCCAGCAAUAUUACGGACU | -2.24 ± 0.1 | -1.2 ± 0.1
23 | GCGGAGCAAUAUUACGAGUU | -3.16 ± 0.31 | -1.91 ± 0.25
24 | CACAAGCAAUAUUACGAUCC | -2.35 ± 0.21 | -1.45 ± 0.23
25 | UAUAAGCAAUAUUACGCACG | -0.779 ± 0.16 | -0.566 ± 0.17
26 | GCGGAGCAAUAUUACGAUAG | -2.96 ± 0.38 | -2.67 ± 0.44
27 | UUCGAGCAAUAUUACGAUUG | – | -2.52 ± 0.34
28 | ACCGAGCAAUAUUACGAGAG | -3.89 ± 0.28 | -2.63 ± 0.18
29 | UAGGAGCAAUAUUACGAACC | -3.08 ± 0.41 | –
30 | UCUAAGCAAUAUUACGUCGC | -2.06 ± 0.23 | -1.22 ± 0.25
31 | CCUAAGCAAUAUUACGCGGG | -3.96 ± 0.21 | -2.68 ± 0.21
32 | AAAAAGCAAUAUUACGAAAU | -1.91 ± 0.091 | -1.01 ± 0.12
33 | CGCUAGCAAUAUUACGCCUG | 0.202 ± 0.13 | 0.152 ± 0.16
34 | GCAAAGCAAUAUUACGCGUA | -0.985 ± 0.075 | -0.362 ± 0.071
35 | GGUUAGCAAUAUUACGACAA | 0.354 ± 0.25 | 0.974 ± 0.3
36 | CUAGAGCAAUAUUACGCCGU | -2.86 ± 0.32 | -1.99 ± 0.43
37 | CGGUAGCAAUAUUACGCAUA | -4.37 ± 0.42 | -2.34 ± 0.26
38 | UCGCAGCAAUAUUACGCUCC | -2.9 ± 0.46 | –
39 | CAUCAGCAAUAUUACGUGGC | -4.41 ± 0.27 | -2.72 ± 0.19
40 | GCGGAGCAAUAUUACGGCGC | -2.22 ± 0.36 | –

Reference: the supplement of paper PMC7877785
